{
  "source": "the supplement of paper PMC9170038",
  "test_system": "MS2 coat protein",
  "test": "apparent KD of MS2 coat protein; higher = weaker reporter binding",
  "conditions": "Eterna round: R107",
  "in_short": "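Designed RNA switches were transcribed on-chip from Illumina sequencing clusters. They were then titrated with SNAP-549-labelled MS2 coat protein (twofold steps, 0.7 or 1.5 nM to 3 µM; 0.8–1.5 h to 10–20 min per step) in 100 mM Tris-HCl pH 7.5, 80 mM KCl, 4 mM MgCl2, without or with constant ligand. Apparent KD is the per-design median of normalised cluster binding-curve fits.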",
  "key": {"[1]": {"conditions": "input ligand: theophylline 20 uM"}, "[2]": {"conditions": "input ligand: theophylline 2 mM"}, "[3]": {"conditions": "input ligand: tryptophan 2.4 mM"}},
  "data": [
    {"sequence": "ACAUUUAACUGAAGGAGCGUGAUAUGUACAUGAGGAUCACCCAUGUCUUACAUGUGAUAUUCACAGGUAGGUCGCAGACUAAUGA [JR_ExcArginiB_Sub004]", "values": [
      {"measurement": "apparent KD of MS2 coat protein", "setting": "input ligand: arginine 13.2 mM", "result": 22.7, "unit": "nM"},
      {"measurement": "apparent KD of MS2 coat protein", "setting": "input ligand: none", "result": 18.8, "unit": "nM"},
      {"measurement": "apparent KD of MS2 coat protein", "setting": "[1]", "result": 23.2, "unit": "nM"},
      {"measurement": "apparent KD of MS2 coat protein", "setting": "[2]", "result": 23, "unit": "nM"},
      {"measurement": "apparent KD of MS2 coat protein", "setting": "[3]", "result": 20.3, "unit": "nM"}
    ]},
    {"sequence": "ACCUACACGGAGACGUGUAGGAGUAAUGAUACCAGCAUGGAGACAUGCCCUUGGCAGCGUUACAUGAGGAUCACCCAUGUGGUGC [ETHA #6]", "values": [
      {"measurement": "apparent KD of MS2 coat protein", "setting": "input ligand: arginine 13.2 mM", "result": 19.1, "unit": "nM"},
      {"measurement": "apparent KD of MS2 coat protein", "setting": "[1]", "result": 37.4, "unit": "nM"},
      {"measurement": "apparent KD of MS2 coat protein", "setting": "[3]", "result": 21.6, "unit": "nM"}
    ]},
    {"sequence": "ACCUCAAUGGAUGAUACCAGCUCAAGGACGAACAUGAGGAUCACCCAUGUGACGUGGUGUAGCCCUUGGCAGCAUACUGACACCU [theeternabot_sameState_MS2_Theo_B_24]", "values": [
      {"measurement": "apparent KD of MS2 coat protein", "setting": "input ligand: arginine 13.2 mM", "result": 34.6, "unit": "nM"},
      {"measurement": "apparent KD of MS2 coat protein", "setting": "[1]", "result": 49, "unit": "nM"},
      {"measurement": "apparent KD of MS2 coat protein", "setting": "[3]", "result": 39.1, "unit": "nM"}
    ]},
    {"sequence": "ACGAACGCACCUGAGGAUCACCCAGGUGAUACCAGCCUGGAAACAGGCCCUUGGCAGCACCUAAAAUAAAGGUAACGUUCGAAUA [TheoAX7 #MicroSwitchBubble #AlternativeMS2]", "values": [
      {"measurement": "apparent KD of MS2 coat protein", "setting": "input ligand: arginine 13.2 mM", "result": 41.1, "unit": "nM"},
      {"measurement": "apparent KD of MS2 coat protein", "setting": "input ligand: none", "result": 74.2, "unit": "nM"},
      {"measurement": "apparent KD of MS2 coat protein", "setting": "[1]", "result": 165, "unit": "nM"},
      {"measurement": "apparent KD of MS2 coat protein", "setting": "[2]", "result": 173, "unit": "nM"},
      {"measurement": "apparent KD of MS2 coat protein", "setting": "[3]", "result": 61.9, "unit": "nM"}
    ]},
    {"sequence": "ACGACGCAUACAGAUACCAGUAGCCGAGAAACAUGAGGAUCACCCAUGUCGAGCGACAACUGCCCUUGGCAGCUGUAUGCGUCAG [SSTheo B #12]", "values": [
      {"measurement": "apparent KD of MS2 coat protein", "setting": "input ligand: arginine 13.2 mM", "result": 8.02, "unit": "nM"},
      {"measurement": "apparent KD of MS2 coat protein", "setting": "[1]", "result": 10.3, "unit": "nM"},
      {"measurement": "apparent KD of MS2 coat protein", "setting": "[3]", "result": 8.02, "unit": "nM"}
    ]},
    {"sequence": "ACGGAGAUUGCUAAAUGUUGGCGAGCGGAUACCAGCCUAUUAUUGGGCCCUUGGCAGCCGACAUGAGGAUCACCCAUGUAAACAA [Berere]", "values": [
      {"measurement": "apparent KD of MS2 coat protein", "setting": "input ligand: arginine 13.2 mM", "result": 9.36, "unit": "nM"},
      {"measurement": "apparent KD of MS2 coat protein", "setting": "[1]", "result": 90.8, "unit": "nM"},
      {"measurement": "apparent KD of MS2 coat protein", "setting": "[3]", "result": 76.7, "unit": "nM"}
    ]},
    {"sequence": "ACGUAAUGCAGAAGGAGCGUCGACCUCUUACAUGAGGAUCACCCAUGUUGCAUGGUUGUACGACAGGUAGGUCGCUGAAGUACGA [#05 Exclusion - Arginine B]", "values": [
      {"measurement": "apparent KD of MS2 coat protein", "setting": "input ligand: arginine 13.2 mM", "result": 34.5, "unit": "nM"},
      {"measurement": "apparent KD of MS2 coat protein", "setting": "input ligand: none", "result": 38.2, "unit": "nM"},
      {"measurement": "apparent KD of MS2 coat protein", "setting": "[1]", "result": 89.5, "unit": "nM"},
      {"measurement": "apparent KD of MS2 coat protein", "setting": "[2]", "result": 68.1, "unit": "nM"},
      {"measurement": "apparent KD of MS2 coat protein", "setting": "[3]", "result": 65.4, "unit": "nM"}
    ]},
    {"sequence": "ACUACAUGAGGAUCACCCAUGUGUACUGAAGGAGCGGCGGAAACGCCAGGUAGGUCGCAGUACACCUCAACCAGCGGUCCUAAGU [EAA NP+V+V2 #1]", "values": [
      {"measurement": "apparent KD of MS2 coat protein", "setting": "input ligand: arginine 13.2 mM", "result": 30, "unit": "nM"},
      {"measurement": "apparent KD of MS2 coat protein", "setting": "input ligand: none", "result": 38.2, "unit": "nM"},
      {"measurement": "apparent KD of MS2 coat protein", "setting": "[1]", "result": 85.9, "unit": "nM"},
      {"measurement": "apparent KD of MS2 coat protein", "setting": "[2]", "result": 115, "unit": "nM"},
      {"measurement": "apparent KD of MS2 coat protein", "setting": "[3]", "result": 51.1, "unit": "nM"}
    ]},
    {"sequence": "ACUGCUUUAGCGGCCGCCACUACAUGGACACUUACACUUUCUUGUUACAUGAGGAUCACCCAUGUUAGGACCGGGCUUGUACGGA [theeternabot_exclusion_MS2_Trp_B_31]", "values": [
      {"measurement": "apparent KD of MS2 coat protein", "setting": "input ligand: arginine 13.2 mM", "result": 30.5, "unit": "nM"},
      {"measurement": "apparent KD of MS2 coat protein", "setting": "[1]", "result": 82.6, "unit": "nM"},
      {"measurement": "apparent KD of MS2 coat protein", "setting": "[2]", "result": 68.4, "unit": "nM"}
    ]},
    {"sequence": "AGACAUGAGGAUCACCCAUGUAGCAUGGAUACCAGAUGUAGAUUAGUCCCUUGGCAGCUGUGGUGAAGUGAUGCAUUGCUCCUAG [Exclusion - Theophylline A (Freestyle 2)]", "values": [
      {"measurement": "apparent KD of MS2 coat protein", "setting": "input ligand: arginine 13.2 mM", "result": 29.9, "unit": "nM"},
      {"measurement": "apparent KD of MS2 coat protein", "setting": "[1]", "result": 74.3, "unit": "nM"},
      {"measurement": "apparent KD of MS2 coat protein", "setting": "[3]", "result": 50.1, "unit": "nM"}
    ]},
    {"sequence": "AGACAUGAGGAUCACCCAUGUAGUAUGGAUACCAGAUCCAGAUUUAUCCCUUGGCAGCUGUGGUACAGCGUUGCAUCGCUCCUAG [Exclusion - Theophylline A (Freestyle 13)]", "values": [
      {"measurement": "apparent KD of MS2 coat protein", "setting": "input ligand: arginine 13.2 mM", "result": 28.9, "unit": "nM"},
      {"measurement": "apparent KD of MS2 coat protein", "setting": "[1]", "result": 44.5, "unit": "nM"},
      {"measurement": "apparent KD of MS2 coat protein", "setting": "[3]", "result": 31.7, "unit": "nM"}
    ]},
    {"sequence": "AGACUGUCUUCGGACAGUCCGGACAGCCCGCGAGGACCGGUACGGCCGCCACUCGCGUGAGGAUCACCCAUGCGAGGCUGUCCGA [Omei Tryp A Exc A v1]", "values": [
      {"measurement": "apparent KD of MS2 coat protein", "setting": "input ligand: arginine 13.2 mM", "result": 27.5, "unit": "nM"},
      {"measurement": "apparent KD of MS2 coat protein", "setting": "[1]", "result": 40.1, "unit": "nM"},
      {"measurement": "apparent KD of MS2 coat protein", "setting": "[2]", "result": 46, "unit": "nM"},
      {"measurement": "apparent KD of MS2 coat protein", "setting": "[3]", "result": 69.9, "unit": "nM"}
    ]},
    {"sequence": "AGAGCAUUGACGGCCGCCACUUAUGUCACAUGAGGAUCACCCAUGUGAUGGGUGAUAGCCCGGUUGAGGACCGGGUCAAUGCUCA [Omei Tryp SS B v6]", "values": [
      {"measurement": "apparent KD of MS2 coat protein", "setting": "input ligand: arginine 13.2 mM", "result": 14.8, "unit": "nM"},
      {"measurement": "apparent KD of MS2 coat protein", "setting": "[1]", "result": 18.5, "unit": "nM"},
      {"measurement": "apparent KD of MS2 coat protein", "setting": "[2]", "result": 15.2, "unit": "nM"}
    ]},
    {"sequence": "AGAGUCAGACAAAAGUCUGGCUCAGCCGAAGGAGCGUCCGAAAGGACAGGUAGGUCGCGGUUACCUGAGGAUCACCCGGGUUCCU [ArgAS 25 #OpenEnded #AlternativeMS2]", "values": [
      {"measurement": "apparent KD of MS2 coat protein", "setting": "input ligand: arginine 13.2 mM", "result": 56.7, "unit": "nM"},
      {"measurement": "apparent KD of MS2 coat protein", "setting": "input ligand: none", "result": 219, "unit": "nM"},
      {"measurement": "apparent KD of MS2 coat protein", "setting": "[1]", "result": 377, "unit": "nM"},
      {"measurement": "apparent KD of MS2 coat protein", "setting": "[2]", "result": 590, "unit": "nM"},
      {"measurement": "apparent KD of MS2 coat protein", "setting": "[3]", "result": 184, "unit": "nM"}
    ]},
    {"sequence": "AGAUUCGACACGGCCGCCACUUGUGGUGGAUUAUCCUAUGUCGAACAUGAGGAUCACCCAUGUACAAGGACCGGGUGUUGAGUCU [XTryp B #21]", "values": [
      {"measurement": "apparent KD of MS2 coat protein", "setting": "input ligand: arginine 13.2 mM", "result": 156, "unit": "nM"},
      {"measurement": "apparent KD of MS2 coat protein", "setting": "[1]", "result": 365, "unit": "nM"},
      {"measurement": "apparent KD of MS2 coat protein", "setting": "[2]", "result": 447, "unit": "nM"}
    ]},
    {"sequence": "AGCAUGUUAUCAGAUACCAGACAUCUUUUAAAACAUAUUACAUGAGGAUCACCCAUGUUGGUCCCUUGGCAGCUGAAAUAUUUCA [JR_Nu_SSTheophyB_Sub024]", "values": [
      {"measurement": "apparent KD of MS2 coat protein", "setting": "input ligand: arginine 13.2 mM", "result": 118, "unit": "nM"},
      {"measurement": "apparent KD of MS2 coat protein", "setting": "[1]", "result": 223, "unit": "nM"},
      {"measurement": "apparent KD of MS2 coat protein", "setting": "[3]", "result": 321, "unit": "nM"}
    ]},
    {"sequence": "AGCCACUCGAGUGAUCCUCACGAGUGGCUACGAGGACCGGUACGGCCGCCACUCGAAUUAACAUGAGGAUCACCCAUGUAAUAAU [Brourdmod03]", "values": [
      {"measurement": "apparent KD of MS2 coat protein", "setting": "input ligand: arginine 13.2 mM", "result": 29.2, "unit": "nM"},
      {"measurement": "apparent KD of MS2 coat protein", "setting": "[1]", "result": 188, "unit": "nM"},
      {"measurement": "apparent KD of MS2 coat protein", "setting": "[2]", "result": 270, "unit": "nM"}
    ]},
    {"sequence": "AGCUGGGAUCCUCAGCGUCAAAGACGCAGUCGAGGACCGGUACGGCCGCCACUCGACACGAGGAUCACCCGUGUCAUUCCCAGCA [TrypAX 1 #SwitchBubble #AlternativeMS2 #MS2Late #CuTurnoff]", "values": [
      {"measurement": "apparent KD of MS2 coat protein", "setting": "input ligand: arginine 13.2 mM", "result": 34.5, "unit": "nM"},
      {"measurement": "apparent KD of MS2 coat protein", "setting": "[1]", "result": 387, "unit": "nM"},
      {"measurement": "apparent KD of MS2 coat protein", "setting": "[2]", "result": 584, "unit": "nM"},
      {"measurement": "apparent KD of MS2 coat protein", "setting": "[3]", "result": 1460, "unit": "nM"}
    ]}
  ]
}
